The source of these data is article PMC11548754, “DRN facilitates WUS transcriptional regulatory activity by chromatin remodeling to regulate shoot stem cell homeostasis in Arabidopsis” (PLOS Biology, 2024).

B1: 8His-MBP-DRN (natural protein)
chain: not shown
notes: also called DORNRÖSCHEN; source: E. coli BL21 (DE3), purified (Ni resin); for EMSA also size-exclusion chromatography; not shown: 8His, N-terminal, kept; MBP, N-terminal, kept

In one series the target is T1, GST-BRM (Arabidopsis, UniProt Q6EVK6 1-976).
T1 construct: The pull-down methods call it GST-BRM; also called BRAHMA; source: E. coli BL21 (DE3), purified (glutathione resin); not shown: GST, N-terminal, kept
T1 sequence (looked up): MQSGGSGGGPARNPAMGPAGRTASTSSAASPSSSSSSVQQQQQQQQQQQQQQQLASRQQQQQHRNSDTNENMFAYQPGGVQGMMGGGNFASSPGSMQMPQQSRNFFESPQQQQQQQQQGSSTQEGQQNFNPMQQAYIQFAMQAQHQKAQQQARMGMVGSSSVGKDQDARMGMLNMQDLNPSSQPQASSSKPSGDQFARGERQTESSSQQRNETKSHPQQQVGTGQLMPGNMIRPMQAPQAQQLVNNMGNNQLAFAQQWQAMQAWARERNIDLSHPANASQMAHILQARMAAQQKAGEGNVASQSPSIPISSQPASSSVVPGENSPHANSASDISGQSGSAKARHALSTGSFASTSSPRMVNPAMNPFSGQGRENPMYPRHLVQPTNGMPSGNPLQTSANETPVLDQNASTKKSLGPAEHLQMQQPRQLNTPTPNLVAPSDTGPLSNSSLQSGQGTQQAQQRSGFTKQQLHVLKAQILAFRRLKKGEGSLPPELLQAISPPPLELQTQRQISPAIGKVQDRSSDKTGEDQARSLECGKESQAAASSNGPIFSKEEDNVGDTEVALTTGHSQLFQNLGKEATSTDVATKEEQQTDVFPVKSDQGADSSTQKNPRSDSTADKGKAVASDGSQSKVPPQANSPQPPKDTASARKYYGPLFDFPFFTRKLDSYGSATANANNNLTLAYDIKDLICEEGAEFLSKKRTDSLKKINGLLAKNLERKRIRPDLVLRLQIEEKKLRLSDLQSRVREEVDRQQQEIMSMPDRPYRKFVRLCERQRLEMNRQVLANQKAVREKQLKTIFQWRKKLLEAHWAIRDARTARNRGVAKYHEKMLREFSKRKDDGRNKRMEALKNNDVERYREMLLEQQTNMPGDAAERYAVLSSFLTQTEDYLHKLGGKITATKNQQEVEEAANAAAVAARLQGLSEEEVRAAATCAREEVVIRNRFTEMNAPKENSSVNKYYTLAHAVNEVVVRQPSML
Briefly: pull-down; beads loaded with protein and soluble protein rotated at 4°C for 4 h in pull-down buffer (200 mM NaCl, 1 mM EDTA, 20 mM Tris-HCl, 0.15 mM PMSF, pH 8.0); blots with anti-GST and anti-His. To be noted: both partners purified.

Series [1] deals with the molecule itself. Briefly: pull-down; competition: agarose beads with 8His-MBP-WUS incubated with soluble GST-WUS for 6 h before soluble 8His-MBP-DRN was added; binding group without DRN.
The target in the series “8His-MBP-DRN” is B1. Briefly: native gel or EMSA; EMSA with biotin-labelled CLV3 promoter probe (−1,090 to −1,064); GST-WUS alone or with 8His-MBP-DRN; super-shift. The note with it: both partners purified. A general note: In EMSA bound probe runs differently from free probe, usually more slowly.
Chain of 8His-MBP-DRN (Q9SAD4 whole entry): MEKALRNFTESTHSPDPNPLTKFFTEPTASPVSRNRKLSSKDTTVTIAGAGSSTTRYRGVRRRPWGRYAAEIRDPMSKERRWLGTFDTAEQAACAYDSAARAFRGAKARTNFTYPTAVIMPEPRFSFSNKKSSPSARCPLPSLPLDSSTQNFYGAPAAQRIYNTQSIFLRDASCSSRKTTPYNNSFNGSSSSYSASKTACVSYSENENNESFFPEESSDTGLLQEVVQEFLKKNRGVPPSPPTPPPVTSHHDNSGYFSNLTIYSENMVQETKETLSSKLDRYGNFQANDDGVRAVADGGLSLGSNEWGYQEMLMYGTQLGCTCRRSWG

As for B1, the binding result in the series with GST-BRM is “binds”.

B2: GST-WUS (natural protein, Arabidopsis, UniProt Q9SB92 1-292, looked up)
chain: MEPPQHQHHHHQADQESGNNNNNKSGSGGYTCRQTSTRWTPTTEQIKILKELYYNNAIRSPTADQIQKITARLRQFGKIEGKNVFYWFQNHKARERQKKRFNGTNMTTPSSSPNSVMMAANDHYHPLLHHHHGVPMQRPANSVNVKLNQDHHLYHHNKPYPSFNNGNLNHASSGTECGVVNASNGYMSSHVYGSMEQDCSMNYNNVGGGWANMDHHYSSAPYNFFDRAKPLFGLEGHQEEEECGGDAYLEHRRTLPLFPMHGEDHINGGSGAIWKYGQSEVRPCASLELRLN
notes: also called WUSCHEL; glutathione-S-transferase (GST)-WUS; source: E. coli BL21 (DE3), purified (glutathione resin); for EMSA also size-exclusion chromatography; not shown: GST, N-terminal, kept
B2: the binding result (in series [1]; with 8His-MBP-DRN) was “binds” in each case.
